# In US20210032365A1 (Chugai, published 2021):
# Numbering of substitutions follows the chain as printed.
# T1: human C1s (human, UniProt P09871 16-688)
# T1 construct: Analyte in the Biacore assays; also called hC1s; serum-derived human C1s (CompTech)
# T1 sequence: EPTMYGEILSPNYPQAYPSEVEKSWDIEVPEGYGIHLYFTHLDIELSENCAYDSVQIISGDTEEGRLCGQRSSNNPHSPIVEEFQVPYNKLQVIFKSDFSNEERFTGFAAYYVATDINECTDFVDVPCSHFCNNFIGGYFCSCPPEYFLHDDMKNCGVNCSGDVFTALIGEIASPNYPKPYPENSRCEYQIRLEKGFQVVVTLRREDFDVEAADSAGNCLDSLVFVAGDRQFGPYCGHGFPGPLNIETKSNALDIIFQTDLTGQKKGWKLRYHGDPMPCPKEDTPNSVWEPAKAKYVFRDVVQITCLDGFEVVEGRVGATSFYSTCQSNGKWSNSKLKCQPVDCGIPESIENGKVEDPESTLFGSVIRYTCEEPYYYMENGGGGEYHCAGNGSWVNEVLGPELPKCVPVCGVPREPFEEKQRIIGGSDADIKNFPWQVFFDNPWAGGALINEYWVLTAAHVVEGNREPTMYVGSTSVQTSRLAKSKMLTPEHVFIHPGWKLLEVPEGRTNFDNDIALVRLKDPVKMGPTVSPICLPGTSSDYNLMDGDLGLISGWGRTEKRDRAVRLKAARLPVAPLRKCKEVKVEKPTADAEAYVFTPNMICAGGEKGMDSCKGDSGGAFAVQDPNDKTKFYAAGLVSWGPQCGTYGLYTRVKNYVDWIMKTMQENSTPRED
# B1: C1_IPN92H0162-SG4GK/IPN93L0024-SK1 (antibody, human IgG4 S228P, kappa, name in Kabat numbering, V domains shown)
# VH: EVMLVESGGGLVKPGGSLRLSCAASGFTFSNYAMSWVRQAPGKGLEWVATISSGGSHTYKLDSVKGRFTISRDNSKDTLYLQMNSLRAEDTALYYCARLFTGHAMDYWGQGTLVTVSS
# VL: QIVLTQSPATLSLSPGERATLSCTASSSVSSSYLHWYQQKPGKAPKLWIYSTSNLASGVPSRFSGSGSGTDYTLTISSLQPEDFATYYCHQYYRLHPITFGQGTKLEIKR
# notes: Substitutions from IPN009VH2, Kabat numbering; also called IPN92H0162/IPN93L0024
# B2: C1_IPN92H0286-SG4GK/IPN93L0205-SK1 (antibody, human IgG4 S228P, kappa, name in Kabat numbering)
# heavy: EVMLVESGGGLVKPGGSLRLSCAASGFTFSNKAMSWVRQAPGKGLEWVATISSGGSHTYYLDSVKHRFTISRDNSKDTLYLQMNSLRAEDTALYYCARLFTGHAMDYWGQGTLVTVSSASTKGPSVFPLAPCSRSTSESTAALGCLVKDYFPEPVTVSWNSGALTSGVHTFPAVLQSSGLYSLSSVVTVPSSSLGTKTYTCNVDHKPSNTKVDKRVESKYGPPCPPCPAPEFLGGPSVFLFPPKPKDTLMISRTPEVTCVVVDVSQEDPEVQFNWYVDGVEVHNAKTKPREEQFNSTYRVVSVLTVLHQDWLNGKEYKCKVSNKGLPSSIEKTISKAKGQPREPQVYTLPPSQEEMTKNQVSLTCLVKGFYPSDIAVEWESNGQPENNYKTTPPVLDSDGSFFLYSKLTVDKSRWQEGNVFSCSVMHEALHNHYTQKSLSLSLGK
# light: QIVLTQSPATLSLSPGERATLSCTASSSVSSSRLHWYQQKPGKAPKLWIYSTSNLASGVPSRFSGSGSGTDYTLTISSLQPEDFATYYCHQYHRHPPITFGQGTKLEIKRTVAAPSVFIFPPSDEQLKSGTASVVCLLNNFYPREAKVQWKVDNALQSGNSQESVTEQDSKDSTYSLSSTLTLSKADYEKHKVYACEVTHQGLSSPVTKSFNRGEC
# notes: Substitutions from IPN009VH2 / IPN009VK3, Kabat numbering; also called IPN92H0286/IPN93L0205
# B3: C1_IPN92H0282-SG4GK/IPN93L0024-SK1 (antibody, human IgG4 S228P, kappa, name in Kabat numbering, V domains shown)
# VH: B1 VH with K60E, K65D, G66E, G102K
# VL: B1 VL
# notes: Substitutions from IPN009VH2, Kabat numbering; also called IPN92H0282/IPN93L0024
# B4: C1_IPN92H0232-SG4GK/IPN93L0024-SK1 (antibody, human IgG4 S228P, kappa, name in Kabat numbering, V domains shown)
# VH: B1 VH with K60Y, G102R
# VL: B1 VL
# notes: Substitutions from IPN009VH2, Kabat numbering; also called IPN92H0232/IPN93L0024
# B5: C1_IPN92H0281-SG4GK/IPN93L0091-SK1 (antibody, human IgG4 S228P, kappa, name in Kabat numbering, V domains shown)
# VH: B1 VH with H57K, K60E, K65D, G66E, G102K
# VL: B1 VL with Y33R
# notes: Substitutions from IPN009VH2 / IPN009VK3, Kabat numbering; also called IPN92H0281/IPN93L0091
# B6: C1_IPN92H0166-SG4GK/IPN93L0024-SK1 (antibody, human IgG4 S228P, kappa, name in Kabat numbering, V domains shown)
# VH: B1 VH with K60Y, L61E
# VL: B1 VL
# notes: Substitutions from IPN009VH2, Kabat numbering; also called IPN92H0166/IPN93L0024
# B7: C1_IPN92H0261-SG4GK/IPN93L0091-SK1 (antibody, human IgG4 S228P, kappa, name in Kabat numbering, V domains shown)
# VH: B1 VH with K60E, G102K
# VL: B1 VL with Y33R
# notes: Substitutions from IPN009VH2 / IPN009VK3, Kabat numbering; also called IPN92H0261/IPN93L0091
# B8: C1_IPN92H0282-SG4GK/IPN93L0091-SK1 (antibody, human IgG4 S228P, kappa, name in Kabat numbering, V domains shown)
# VH: B1 VH with K60E, K65D, G66E, G102K
# VL: B1 VL with Y33R
# notes: Substitutions from IPN009VH2 / IPN009VK3, Kabat numbering; also called IPN92H0282/IPN93L0091
# B9: C1_IPN92H0188-SG4GK/IPN93L0024-SK1 (antibody, human IgG4 S228P, kappa, name in Kabat numbering, V domains shown)
# VH: B1 VH with K60Y, K65D
# VL: B1 VL
# notes: Substitutions from IPN009VH2, Kabat numbering; also called IPN92H0188/IPN93L0024
# B10: C1_IPN92H0165-SG4GK/IPN93L0024-SK1 (antibody, human IgG4 S228P, kappa, name in Kabat numbering, V domains shown)
# VH: B1 VH with K60Y, L61D
# VL: B1 VL
# notes: Substitutions from IPN009VH2, Kabat numbering; also called IPN92H0165/IPN93L0024
# B11: C1_IPN92H0253-SG4GK/IPN93L0024-SK1 (antibody, human IgG4 S228P, kappa, name in Kabat numbering, V domains shown)
# VH: B1 VH with K60Y, D106K
# VL: B1 VL
# notes: Substitutions from IPN009VH2, Kabat numbering; also called IPN92H0253/IPN93L0024
# B12: C1_IPN92H0231-SG4GK/IPN93L0024-SK1 (antibody, human IgG4 S228P, kappa, name in Kabat numbering, V domains shown)
# VH: B1 VH with K60Y, G102K
# VL: B1 VL
# notes: Substitutions from IPN009VH2, Kabat numbering; also called IPN92H0231/IPN93L0024
# B13: C1_IPN92H0279-SG4GK/IPN93L0091-SK1 (antibody, human IgG4 S228P, kappa, name in Kabat numbering, V domains shown)
# VH: B1 VH with K60E, G66E, G102K
# VL: B1 VL with Y33R
# notes: Substitutions from IPN009VH2 / IPN009VK3, Kabat numbering; also called IPN92H0279/IPN93L0091
# B14: C1_IPN92H0281-SG4GK/IPN93L0024-SK1 (antibody, human IgG4 S228P, kappa, name in Kabat numbering)
# heavy: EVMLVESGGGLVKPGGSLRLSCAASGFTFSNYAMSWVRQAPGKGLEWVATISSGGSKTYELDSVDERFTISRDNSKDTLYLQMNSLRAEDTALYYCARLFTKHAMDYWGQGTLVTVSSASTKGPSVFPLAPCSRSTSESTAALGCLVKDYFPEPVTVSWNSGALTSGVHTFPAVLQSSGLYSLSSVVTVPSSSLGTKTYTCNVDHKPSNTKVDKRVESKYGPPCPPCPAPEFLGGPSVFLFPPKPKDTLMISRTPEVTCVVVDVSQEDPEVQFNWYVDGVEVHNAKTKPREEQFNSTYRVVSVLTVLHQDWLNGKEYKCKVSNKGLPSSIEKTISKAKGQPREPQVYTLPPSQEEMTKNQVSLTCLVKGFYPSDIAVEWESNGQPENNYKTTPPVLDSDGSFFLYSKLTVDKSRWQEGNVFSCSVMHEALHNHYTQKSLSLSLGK
# light: B2 light with R33Y, H93Y, H95L, P96H
# notes: Substitutions from IPN009VH2, Kabat numbering; also called IPN92H0281/IPN93L0024
# B15: C1_IPN92H0193-SG4GK/IPN93L0024-SK1 (antibody, human IgG4 S228P, kappa, name in Kabat numbering, V domains shown)
# VH: B1 VH with K60Y, G66D
# VL: B1 VL
# notes: Substitutions from IPN009VH2, Kabat numbering; also called IPN92H0193/IPN93L0024
# B16: C1_IPN92H0194-SG4GK/IPN93L0024-SK1 (antibody, human IgG4 S228P, kappa, name in Kabat numbering, V domains shown)
# VH: B1 VH with K60Y, G66E
# VL: B1 VL
# notes: Substitutions from IPN009VH2, Kabat numbering; also called IPN92H0194/IPN93L0024
# What was measured:
# human C1s [1] = molecular target: T1, human C1s; assay: SPR (Biacore T200, 37C), Ab captured on protein A/G; pH 5.8, 3 uM Ca
# Protocol: (§1) Each antibody was captured onto the sensor surface by protein A/G. Antibody capture levels were aimed at 200 resonance unit (RU). Serum-derived human C1s (CompTech) or recombinant C1s prepared in EXAMPLE 1 was injected at 50 nM, followed by dissociation. The sensor surface was regenerated in each cycle with 10 mM Glycine-HCl, pH 1.5. […] The ratio of KD 5.8+ to KD 7.4+(“KD 5+/7+”) and that of KD 5.8− to KD 7.4+(“KD 5−/7+”) were calculated. When the KD 5+/7+ or KD 5−/7+ of a variant is larger than that of the parent antibody IPN009VH2-SG4GK/IPN009VK3-SK1, that variant is considered to be “pH”- or “pH and Ca”-dependent, respectively. When binding response in 5(+) buffer and/or in 5(−) buffer of a variant is much lower than that of IPN09VH2/IPN009VK3, that variant is also considered as “pH”- and/or “pH and Ca”-dependent. Therefore, such mutations are effective to generate “pH”- and/or “pH and Ca”-dependent antibody. To further enhance “pH” and/or “pH and Ca” dependency, a combination of histidine mutations was conducted. Antibodies with combinations of histidine mutations were evaluated using Biacore by the method described above.
# (§2) C1_1IPN92H0033 (SEQ ID NO: 17)-SG4GK/IPN93L0024 (SEQ ID NO: 18)-SK1 (IPN92H0033/IPN93L0024) was selected for further optimization. Histidine, Lysine, Arginine, aspartic acid, glutamic acid, and glutamine scanning was conducted for CDRs and certain positions of FRs of IPN92H0033/IPN93L0024. Variants with a mutation were generated and purified, and evaluated using Biacore by the method mentioned above. All variants were evaluated using Biacore as mentioned above. Mutations that improved “pH” and/or “pH and Ca” dependency were selected for the combination.
# human C1s [2] = molecular target: T1, human C1s; assay: SPR (Biacore T200, 37C), Ab captured on protein A/G; pH 5.8, 1.2 mM Ca
# Protocol: as §1, §2
# human C1s [3] = molecular target: T1, human C1s; assay: SPR; KD at pH 5.8 (1.2 mM Ca) over KD at pH 7.4 (1.2 mM Ca)
# Protocol: as §1, §2
# human C1s [4] = molecular target: T1, human C1s; assay: SPR; KD at pH 5.8 (3 uM Ca) over KD at pH 7.4 (1.2 mM Ca)
# Protocol: as §1, §2
Binder,Kd (human C1s [1]) [nM],koff (human C1s [1]) [s⁻¹],kon (human C1s [1]) [M⁻¹ s⁻¹],Kd (human C1s [2]) [nM],koff (human C1s [2]) [s⁻¹],kon (human C1s [2]) [M⁻¹ s⁻¹],KD 5(+)/7(+) (human C1s [3]),KD 5(-)/7(+) (human C1s [4])
B1,4.89,0.00784,1.6e+06,11.5,0.00524,456000,6.4,2.72
B2,4.65,0.00477,1.03e+06,6.57,0.00346,527000,4.2,2.94
B3,8.55,0.00327,382000,18,0.00998,553000,10.9,5.18
B4,5.19,0.0173,3.23e+06,8.49,0.00485,570000,5.7,3.46
B5,3.88,0.00227,585000,11.3,0.00707,625000,2.4,0.82
B6,6.75,0.687,1.02e+08,3.77,0.00226,600000,2.1,3.84
B7,12.1,0.00736,606000,16.1,0.00533,332000,16.3,12.3
B8,2.21,0.00148,670000,16.9,0.00755,445000,8.6,1.13
B9,4.21,0.0106,2.53e+06,8.21,0.00413,504000,4,2.07
B10,8.18,0.715,8.74e+07,3.74,0.00228,608000,2.1,4.62
B11,25.4,0.0147,578000,1.52,0.000717,471000,12.6,210
B12,5.28,0.00674,1.28e+06,9.59,0.00544,568000,7.4,4.06
B13,5.17,0.00611,1.18e+06,20,0.00684,342000,29.2,7.54
B14,4.98,0.003,602000,23.6,0.024,1.02e+06,9.4,1.98
B15,3.21,0.0685,2.14e+07,5.74,0.00417,727000,6.2,3.47
B16,6.45,0.00517,802000,5.72,0.00429,751000,6.5,7.29
